This experiment concerns the target Recombinant B19 parvovirus empty capsid particles (VP1/2) (B19 parvovirus) (UniProt P07299). The experiment can be described thus: cell-based or functional assay.

For the substance “anti-B19 parvovirus monoclonal antibody (MAB8292)”, the BFU-E colony counts (% of medium control), fetal liver cells; capsid 7 µg/ml + 0.02 µg/mL Mab (capsid only: 43%) (% of medium control) is 52; the BFU-E colony counts (% of medium control), fetal liver cells; capsid 7 µg/ml + 0.2 µg/mL Mab (capsid only: 43%) (% of medium control) worked out at 52; the BFU-E colony counts (% of medium control), fetal liver cells; capsid 7 µg/ml + 2.0 µg/mL Mab (capsid only: 43%) (% of medium control) was found to be 69; the BFU-E colony counts (% of medium control), fetal liver cells; capsid 7 µg/ml + 20.0 µg/mL Mab (capsid only: 43%) (% of medium control) is more than 100. Also, the CFU-GEMM colony counts (% of medium control), fetal liver cells; capsid 7 µg/ml + 0.02 µg/mL Mab (capsid only: 21%) (% of medium control) worked out at 21; the CFU-GEMM colony counts (% of medium control), fetal liver cells; capsid 7 µg/ml + 0.2 µg/mL Mab (capsid only: 21%) (% of medium control) turned out to be 19; the CFU-GEMM colony counts (% of medium control), fetal liver cells; capsid 7 µg/ml + 2.0 µg/mL Mab (capsid only: 21%) (% of medium control) came to 45; the CFU-GEMM colony counts (% of medium control), fetal liver cells; capsid 7 µg/ml + 20.0 µg/mL Mab (capsid only: 21%) (% of medium control) amounted to 67. Also, the CFU-GM colony counts (% of medium control), fetal liver cells; capsid 7 µg/ml + 0.02 µg/mL Mab (capsid only: 30%) (% of medium control) came to 30; the CFU-GM colony counts (% of medium control), fetal liver cells; capsid 7 µg/ml + 0.2 µg/mL Mab (capsid only: 30%) (% of medium control) is 21; the CFU-GM colony counts (% of medium control), fetal liver cells; capsid 7 µg/ml + 2.0 µg/mL Mab (capsid only: 30%) (% of medium control) came to 35; the CFU-GM colony counts (% of medium control), fetal liver cells; capsid 7 µg/ml + 20.0 µg/mL Mab (capsid only: 30%) (% of medium control) is 74.

Source of the values: patent US20030017596A1.
